Measured values: US20120058499

Molecular target: NEDD8-amino-luciferin, Q15843
Sequence (Q15843 whole entry, looked up): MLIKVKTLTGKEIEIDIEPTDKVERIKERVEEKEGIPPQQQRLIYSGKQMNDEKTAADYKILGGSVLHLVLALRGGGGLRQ

B1: DEN1 (NEDD8-specific protease 1) (protein)
chain: MDPVVLSYMDSLLRQSDVSLLDPPSWLNDHIIGFAFEYFANSQFHDCSDHVSFISPEVTQFIKCTSNPAEIAMFLEPLDLPNKRVVFLAINDNSNQAAGGTHWSLLVYLQDKNSFFHYDSHSRSNSVHAKQVAEKLEAFLGRKGDKLAFVEEKAPAQQNSYDCGMYVICNTEALCQNFFRQQTESLLQLLTPAYITKKRGEWKDLITTLAKK
luminescence (RLUs), 250 nM substrate: A significant increase in signal was observed with the NEDD8-amino-luciferin substrate at a Den1 concentration at least 3-orders of magnitude lower than required for the Z-RLRGG (SEQ ID NO: 1)-amino-luciferin substrate
